# Test results reported in patent US20260083749A1, “ANTI-CD123 IMMUNOCONJUGATES FOR THE TREATMENT OF ACUTE MYELOID LEUKEMIA” (ImmunoGen, Inc., priority 2024, published 2026).
# B1: pivekimab sunirine (conjugate, chains of the INN, looked up)
# VH: QVQLVQSGAEVKKPGASVKVSCKASGYIFTSSIMHWVRQAPGQGLEWIGYIKPYNDGTKYNEKFKGRATLTSDRSTSTAYMELSSLRSEDTAVYYCAREGGNDYYDTMDYWGQGTLVTVSS
# VL: EIQMTQSPSSLSASVGDRVTITCRASQDINSYLSWFQQKPGKAPKTLIYRVNRLVDGVPSRFSGSGSGNDYTLTISSLQPEDFATYYCLQYDAFPYTFGQGTKVEIK
# modifications: sunirine payload (DNA-alkylating drug conjugate)
# Columns and labels:
# [1] = tested on: AML patients; details: published for other AML therapies; cited from earlier work
# [2] = tested on: normal marrow progenitors; details: background statement; cited from earlier work
# [3] = tested on: patients with R/R AML; assay: Phase 1/2 trial of pivekimab sunirine monotherapy Q3W: safety (TEAEs, SAEs, DLTs); type: in vivo, human
# Experimental: (§1) Patients with AML were enrolled into a phase 1/2 clinical trial of pivekimab sunirine. Key inclusion and exclusion criteria were as follows.
# (§2) Patients with R/R AML (n=68) were treated with pivekimab sunirine once every 3 weeks (Q3W; on day 1 of a 3-week cycle).
# (§3) The trial included a dose-escalation phase and a dose-expansion phase. All patients in both phases received intravenous doses of pivekimab sunirine on day 1 of a 21-day cycle as a <30-minute outpatient infusion. Lyophilized pivekimab sunirine was reconstituted using […] of water for injection. Planned treatment consisted of 2 cycles (6 weeks). Additional cycles, up to 10 total, were administered for patients deriving benefit from this regimen. CNS prophylactic intrathecal chemotherapy was administered. Patients received 8 mg dexamethasone on the day before any pivekimab sunirine dose. Patients also received 25-50 mg diphenhydramine, 325-650 mg acetaminophen or paracetamol, and 8 mg dexamethasone before each pivekimab sunirine infusion.
# Following preparation, IMGN632 (or pivekimab sunirine (pvek)) was administered by IV syringe pump. Overall length of infusion was varied depending on dose and patient tolerability. Initially, the study drug was administered at a rate of 0.165 mg/min ([…]); and, after 30 minutes, if well tolerated, the rate was increased to 0.33 mg/min. Subsequent infusions were delivered at the highest tolerated rate. Before and following infusion, the line was flushed with 5% dextrose to ensure delivery of the full dose. Patients were carefully observed during each infusion and vital signs were monitored. Patients remained in the clinic under observation for 4 hours after the first infusion and for at least 1 hour after each subsequent infusion.
# (§4) In the dose-escalation phase, patients received doses of pivekimab sunirine starting at 0.015 mg/kg with five escalations (n=38): 0.015 mg/kg (n=3), 0.045 mg/kg (n=9), 0.09 mg/kg (n=12), […] (n=7), 0.3 mg/kg (n=5), and 0.45 mg/kg (n=2).
# Based on nonclinical pharmacology, clinical safety, anti-leukemia activity, PK, and PD assessments during the dose-escalation phase, two cohorts were established for the dose expansion phase. • Cohort 1: Patients with relapsed AML received 0.045 mg/kg (escalation dose level 2) Q3W (n=20). • Cohort 2: Patients with relapsed or refractory (to non-intense therapies) AML received 0.09 mg/kg (escalation dose level 3) Q3W (n=10).
# Safety was assessed by treatment-emergent adverse events (TEAEs), serious adverse events (SAEs), and dose-limiting toxicities (DLTs). The median duration of treatment in participants who received […] pivekimab sunirine Q3W (n=29) was 9 weeks (range, 3-110).
# [4] = tested on: patients with R/R AML; assay: Phase 1/2 trial of pivekimab sunirine monotherapy Q3W: anti-leukemia responses; type: in vivo, human; details: for Median time to first CCR (CR/CRh/CRi): range
# From the text: as §1
# • Patients ≥18 years old • R/R AML • Confirmation of CD123 positivity on flow cytometry or immunohistochemistry (IHC). Patients who received prior CD123-targeting agents were allowed as long as the blasts still had detectable CD123 expression. • Eastern Cooperative Oncology Group (ECOG) performance status ≤1. […] Patients with a PCHM were eligible as long as no current therapy was still required for the second malignancy (e.g., MDS, CMML). Patients with a nonhematologic prior malignancy were in remission from the prior malignancy.
# as §2, §3, §4
# Anti-leukemia responses were assessed per International Working Group (IWG) criteria 2003 (Cheson B D, et al. Revised recommendations of the International Working Group for Diagnosis, Standardization of Response Criteria, Treatment Outcomes, and Reporting Standards for Therapeutic Trials in Acute Myeloid Leukemia. J Clin Oncol 2003; 21(24): 4642-9) and European LeukemiaNet (ELN) response criteria 2017 (Dohner H, et al. Diagnosis and management of AML in adults: 2017 ELN recommendations from an international expert panel. Blood 2017; 129(4): 424-47) as composite complete remission (CCR) rate (defined as CR without minimal residual disease [CRMRD−]+CR+CRh+CR with incomplete recovery CRi]). Overall response rate (ORR) was defined as CRMRD−+CR+CRh+CRi+morphologic leukemia-free state (MLFS) +partial response (PR). Duration of overall response (DOR) was also evaluated.
# Response assessments were performed in bone marrow aspirates (BMAs) for differential assessments taken on Cycle 1, Day 21±7 days. Subsequent BMAs were performed approximately every 1 to 2 cycles as clinically indicated, and at the 30-Day Follow-up visit. Data was also collected in the event BMAs were performed more frequently. No repeat bone marrow was necessary if lack of response or PD could be unequivocally diagnosed from peripheral blood tests or if the bone marrow test was considered noncontributory at any time point.
# [5] = tested on: AML xenografts; details: background statement; cited from earlier work
# [6] = tested on: patients with R/R AML; assay: Phase 1/2 trial of pivekimab sunirine monotherapy Q3W: safety (TEAEs, SAEs, DLTs); type: in vivo, human; details: N= 3/91; dose levels four- to ten-fold higher per cycle than the RP2D
# [7] = RP2D, prior intensive therapy, n= 5/22
# [8] = RP2D, prior venetoclax exposure, n= 2/14
molecule,measurement,setting,value
CCc1nc(C(N)=O)c(Nc2ccc(N3CCC(N4CCN(C)CC4)CC3)c(OC)c2)nc1NC1CCOCC1 [gilteritinib],"Incidence of febrile neutropenia, published",[1],46%
N#Cc1ccnc(N2C(=O)CC[C@H]2C(=O)N(c2cncc(F)c2)[C@H](C(=O)NC2CC(F)(F)C2)c2ccccc2Cl)c1 [ivosidenib],"Incidence of febrile neutropenia, published",[1],29%
B1,Toxicity in normal marrow progenitors versus other DNA-targeting payloads,[2],less toxicity in normal marrow progenitors
same,Prolonged neutropenia (grade 3) considered related to pivekimab sunirine (DLT),[3]; 0.3 mg/kg after 2 cycles,one
same,30-day mortality rate,[3]; 2 deaths due to disease progression,7%
same,Maximum tolerated dose (MTD),"[3]; 30-fold dose escalation, 0.015-[…] Q3W",no maximum tolerated dose (MTD) defined
same,Incidence of febrile neutropenia,[3]; all schedule A participants,35%
same,Reversible VOD possibly related to pivekimab sunirine (DLT),"[3]; grade 3, 0.18 mg/kg after 2 cycles, grade 4, […] during cycle 1",two
same,Grade 4 IRRs,[3]; in vivo,no grade 4 IRRs occurred
same,IRRs,"[3]; mostly tachycardia and/or chills with the first dose, primarily grade 1-2",31%
same,Participants who experienced DLTs,"[3]; of the 68 participants, all doses",Three
same,TEAEs leading to treatment discontinuation,[3]; seven of 68 participants,10%
same,"Best overall response CR, %",[4]; All Participants (n = 68),(3) %
same,"Best overall response CR, No.",[4]; All Participants (n = 68),2 No.
same,"Best overall response CRh, %",[4]; All Participants (n = 68),(3) %
same,"Best overall response CRh, No.",[4]; All Participants (n = 68),2 No.
same,"Best overall response CRi, %",[4]; All Participants (n = 68),(6) %
same,"Best overall response CRi, No.",[4]; All Participants (n = 68),4 No.
same,"Best overall response MLFS, %",[4]; All Participants (n = 68),(3) %
same,"Best overall response MLFS, No.",[4]; All Participants (n = 68),2 No.
same,"Best overall response PD, %",[4]; All Participants (n = 68),(24) %
same,"Best overall response PD, No.",[4]; All Participants (n = 68),16 No.
same,"Best overall response PR, %",[4]; All Participants (n = 68),(2) %
same,"Best overall response PR, No.",[4]; All Participants (n = 68),1 No.
same,"Best overall response SD, %",[4]; All Participants (n = 68),(52) %
same,"Best overall response SD, No.",[4]; All Participants (n = 68),35 No.
same,"CCR rate (CR + CRh + CRi), %",[4]; All Participants (n = 68),(12) %
same,"CCR rate (CR + CRh + CRi), No.",[4]; All Participants (n = 68),8 No.
same,Median duration of CR,[4]; All Participants (n = 68),2.2 mo
same,Median duration of remission,[4]; All Participants (n = 68),2.0 mo
same,"ORR (CR + CRh + CRi + MLFS + PR), No.",[4]; All Participants (n = 68),11 No.
same,Anti-leukemia activity versus CD123 expression,[4]; FIG. 3,anti-leukemia activity regardless of CD123 expression
same,ORR,"[4]; RP2D, de novo (nonsecondary) AML, n= 6/18",33%
same,CCR,"[4]; RP2D, prior HSCT, n= 3/9",33%
same,ORR,"[4]; RP2D, prior HSCT, n= 3/9",33%
same,CCR,[4]; [7],23%
same,ORR,[4]; [7],23%
same,CCR,[4]; [8],14%
same,ORR,[4]; [8],14%
same,CCR,"[4]; RP2D, two prior lines, n= 3/15",20%
same,ORR,"[4]; RP2D, two prior lines, n= 4/15",27%
same,CCR,"[4]; RP2D, venetoclax-naive, n= 3/15",20%
same,ORR,"[4]; RP2D, venetoclax-naive, n= 4/15",27%
same,Median duration of CCR (CR/CRh/CRi),"[4]; RP2D, 95% CI 1.64-not estimable",2.27 months
same,Median time to first CCR (CR/CRh/CRi),"[4]; RP2D, 0.79-3.61",2.04 months
same,Participants with decrease in bone marrow blasts,"[4]; all dose levels and cohorts, n= 31/68",46%
same,Median duration of CCR (CR/CRh/CRi),"[4]; all schedule A doses, 95% CI 1.02-3.55",2.22 months
same,Median time to first CCR (CR/CRh/CRi),"[4]; all schedule A doses, 0.46-4.37",1.76 months
same,Participants with >100% increase in BM blasts,"[4]; cohort 1 and cohort 2 R/R AML, FIG. 1",11 participants
same,Individual responses in participants with FLT3-ITD mutations,[4]; in vivo,¼
same,Individual responses in participants with IDH1 mutations,[4]; in vivo,⅓
same,Antitumor activity in AML xenografts,[5],potent antitumor activity
same,Reversible VOD,[6],3%
